Patent US20180371086A1 (Gilead, published 2018)

Assays:
Human FcRn [1] = target: T1, Human FcRn (human, UniProt P55899 24-297; P61769 21-119); experiment: ELISA, FcRn coated on plate; ratio of EC50 at pH 7.0 to pH 6.0
T1 construct: also called neonatal Fc receptor
Protocol: (§1) The binding of antibodies to FcRn of various antibody variants at different pHs was determined. A 96-well Maxisorp plate was coated with 100 ul of 5 μg/ml FcRn. The plate was incubated overnight at 4° C., and then blocked with 4% skim milk for 2 hr at room temperature after washing 3 times with 0.05% Tween 20 washing buffer. […] The plate was then washed 3 times and 100 μL of Fab-anti-human Fab-HRP or Goat anti-human IgG-HRP secondary antibody diluted in 4% skimmed milk was added. Plates were then incubated 50 min at room temperature, washed three times, and 100 μL fresh TMB substrate was added. Plates were developed for 3 minutes on bench with gentle shaking. Plate was quenched with 100 μL 1M HCl, shaken briefly, read at A450 on a spectramax m5 plate reader.

Human FcRn [2] = target: T1, Human FcRn; experiment: ELISA, FcRn coated on plate, pH 6.0
Protocol: as §1

Human FcRn [3] = target: T1, Human FcRn; experiment: ELISA, FcRn coated on plate; pH 7.0/6.0 ratio against that of PGT121
Protocol: as §1

[4] = target: HIV-1 Env (gp120) of virus 7406 (HIV-1); experiment: cell-based or functional assay
[5] = target: HIV-1 Env (gp120) of virus REJO (HIV-1); experiment: cell-based or functional assay
[6] = target: HIV-1 Env (gp120) of virus CH058 (HIV-1); experiment: cell-based or functional assay
[7] = target: HIV-1 Env (gp120) of virus 727 (HIV-1); experiment: cell-based or functional assay
[8] = target: HIV-1 Env (gp120) of virus 1489 (HIV-1); experiment: cell-based or functional assay
[9] = target: HIV-1 Env (gp120) of virus 8106 (HIV-1); experiment: cell-based or functional assay
[10] = target: HIV-1 Env (gp120) of virus WITO (HIV-1 (clone WITO)); experiment: cell-based or functional assay
[11] = target: HIV-1 Env (gp120) of virus 7576 (HIV-1); experiment: cell-based or functional assay
[12] = target: HIV-1 Env (gp120) of virus 7467 (HIV-1); experiment: cell-based or functional assay
[13] = target: HIV-1 Env (gp120) of virus CH106 (HIV-1); experiment: cell-based or functional assay
[14] = target: HIV-1 Env (gp120) of virus 657 (HIV-1); experiment: cell-based or functional assay
[15] = target: HIV-1 Env (gp120) of virus 8339 (HIV-1); experiment: cell-based or functional assay
[16] = target: HIV-1 Env (gp120) of virus 712 (HIV-1); experiment: cell-based or functional assay
[17] = target: HIV-1 Env (gp120) of virus 8398 (HIV-1); experiment: cell-based or functional assay
[18] = target: HIV-1 Env (gp120) of virus 593 (HIV-1); experiment: cell-based or functional assay
[19] = target: HIV-1 Env (gp120) of virus 8320 (HIV-1); experiment: cell-based or functional assay
[20] = target: HIV-1 Env (gp120) of virus 8089 (HIV-1); experiment: cell-based or functional assay
[21] = target: HIV-1 Env (gp120) of virus 7051 (HIV-1); experiment: cell-based or functional assay
[22] = target: HIV-1 Env (gp120) of virus BaL (HIV-1); experiment: cell-based or functional assay
[23] = target: HIV-1 Env (gp120) of virus 8176 (HIV-1); experiment: cell-based or functional assay
[24] = target: HIV-1 Env (gp120) of virus 7015 (HIV-1); experiment: cell-based or functional assay
[25] = target: HIV-1 Env (gp120) of virus 7552 (HIV-1); experiment: cell-based or functional assay
Human FcRn [26] = target: T1, Human FcRn; experiment: ELISA, FcRn coated on plate, pH 7.0
Protocol: as §1

[27] = target: HIV-1 Env of virus MGRM-A-012 (HIV-1); experiment: cell-based or functional assay
[28] = target: HIV-1 Env of virus MGRM-C-024 (HIV-1); experiment: cell-based or functional assay
[29] = target: HIV-1 Env of virus MGRM-AG-005 (HIV-1); experiment: cell-based or functional assay
[30] = target: HIV-1 Env of virus MGRM-F1-010 (HIV-1); experiment: cell-based or functional assay
[31] = target: HIV-1 Env of virus MGRM-Acute-B-007 (HIV-1); experiment: cell-based or functional assay
[32] = target: HIV-1 Env of virus MGRM-Chronic-B-007 (HIV-1); experiment: cell-based or functional assay
[33] = target: HIV-1 Env of virus MGRM-C-002 (HIV-1); experiment: cell-based or functional assay
[34] = target: HIV-1 Env of virus MGRM-C-028 (HIV-1); experiment: cell-based or functional assay
[35] = target: HIV-1 Env of virus MGRM-Chronic-B-008 (HIV-1); experiment: cell-based or functional assay

T1 sequence (P55899 24-297 limits assumed, chain 1 of 2): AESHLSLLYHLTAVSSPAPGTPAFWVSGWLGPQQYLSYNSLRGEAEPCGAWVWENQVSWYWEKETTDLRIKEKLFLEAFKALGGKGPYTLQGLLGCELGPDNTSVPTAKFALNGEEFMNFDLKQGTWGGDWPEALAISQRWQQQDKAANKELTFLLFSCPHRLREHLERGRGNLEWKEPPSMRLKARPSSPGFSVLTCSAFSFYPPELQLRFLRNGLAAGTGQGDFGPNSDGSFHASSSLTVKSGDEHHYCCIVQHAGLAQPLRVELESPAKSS
T1 sequence (P61769 21-119 limits assumed, chain 2 of 2): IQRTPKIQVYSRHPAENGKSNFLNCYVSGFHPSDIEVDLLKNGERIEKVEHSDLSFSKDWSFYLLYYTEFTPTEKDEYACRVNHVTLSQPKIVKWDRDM

B1: PGT121.60 hIgG1/hLambda (antibody)
heavy: QMQLQESGPGLVKPSETLSLTCSVSGASISDSYWSWIRRSPGKGLEWIGYVHKSGDTNYNPSLKSRVHLSLDTSKNQVSLSLTGVTAADSGKYYCARTLHGRRIYGIVAFNEWFTYFYMDVWGTGTQVTVSSASTKGPSVFPLAPSSKSTSGGTAALGCLVKDYFPEPVTVSWNSGALTSGVHTFPAVLQSSGLYSLSSVVTVPSSSLGTQTYICNVNHKPSNTKVDKKVEPKSCDKTHTCPPCPAPELLAGPDVFLFPPKPKDTLMISRTPEVTCVVVDVSHEDPEVKFNWYVDGVEVHNAKTKPREEQYNSTYRVVSVLTVLHQDWLNGKEYKCKVSNKALPLPEEKTISKAKGQPREPQVYTLPPSREEMTKNQVSLTCLVKGFYPSDIAVEWESNGQPENNYKTTPPVLDSDGSFFLYSKLTVDKSRWQQGNVFSCSVLHEALHSHYTQKSLSLSPGK
light: not shown
Ratio pH 7.0/6.0 (Human FcRn [1]): 355 | EC50 (Human FcRn [2]): 0.22 nM | Fold vs PGT121 (Human FcRn [3]): 11 fold | EC50 (µg/mL), killing of HIV-infected cells (Mean) [4]: 0.09 µg/mL | Emax, killing of HIV-infected cells (Mean) [4]: 63% | EC50 (µg/mL), killing of HIV-infected cells (Mean) [5]: 2.6 µg/mL | Emax, killing of HIV-infected cells (Mean) [5]: 0% | EC50 (µg/mL), killing of HIV-infected cells (Mean) [6]: 0.16 µg/mL | Emax, killing of HIV-infected cells (Mean) [6]: 71% | EC50 (µg/mL), killing of HIV-infected cells (Mean) [7]: 0.034 µg/mL | Emax, killing of HIV-infected cells (Mean) [7]: 66% | EC50 (µg/mL), killing of HIV-infected cells (Mean) [8]: 0.276 µg/mL | Emax, killing of HIV-infected cells (Mean) [8]: 70% | EC50 (µg/mL), killing of HIV-infected cells (Mean) [9]: 0.11 µg/mL | Emax, killing of HIV-infected cells (Mean) [9]: 75% | EC50 (µg/mL), killing of HIV-infected cells (Mean) [10]: 2.52 µg/mL | Emax, killing of HIV-infected cells (Mean) [10]: 71% | EC50 (µg/mL), killing of HIV-infected cells (Mean) [11]: 0.016 µg/mL | Emax, killing of HIV-infected cells (Mean) [11]: 71% | EC50 (µg/mL), killing of HIV-infected cells (Mean) [12]: 0.139 µg/mL | Emax, killing of HIV-infected cells (Mean) [12]: 54% | EC50 (µg/mL), killing of HIV-infected cells (Mean) [13]: 6.17 µg/mL | Emax, killing of HIV-infected cells (Mean) [13]: 46% | EC50 (µg/mL), killing of HIV-infected cells (Mean) [14]: 1.44 µg/mL | Emax, killing of HIV-infected cells (Mean) [14]: 62% | EC50 (µg/mL), killing of HIV-infected cells (Mean) [15]: 3.81 µg/mL | Emax, killing of HIV-infected cells (Mean) [15]: 13% | EC50 (µg/mL), killing of HIV-infected cells (Mean) [16]: 0.084 µg/mL | Emax, killing of HIV-infected cells (Mean) [16]: 71% | EC50 (µg/mL), killing of HIV-infected cells (Mean) [17]: 0.067 µg/mL | Emax, killing of HIV-infected cells (Mean) [17]: 76% | EC50 (µg/mL), killing of HIV-infected cells (Mean) [18]: 0.912 µg/mL | Emax, killing of HIV-infected cells (Mean) [18]: 56% | EC50 (µg/mL), killing of HIV-infected cells (Mean) [19]: 2.12 µg/mL | Emax, killing of HIV-infected cells (Mean) [19]: 0% | EC50 (µg/mL), killing of HIV-infected cells (Mean) [20]: 0.226 µg/mL | Emax, killing of HIV-infected cells (Mean) [20]: 64% | EC50 (µg/mL), killing of HIV-infected cells (Mean) [21]: 0.394 µg/mL | Emax, killing of HIV-infected cells (Mean) [21]: 49% | EC50 (µg/mL), killing of HIV-infected cells (Mean) [22]: 0.048 µg/mL | Emax, killing of HIV-infected cells (Mean) [22]: 73% | EC50 (µg/mL), killing of HIV-infected cells (Mean) [23]: 1.01 µg/mL | Emax, killing of HIV-infected cells (Mean) [23]: 56% | EC50 (µg/mL), killing of HIV-infected cells (Mean) [24]: 0.516 µg/mL | Emax, killing of HIV-infected cells (Mean) [24]: 55% | EC50 (µg/mL), killing of HIV-infected cells (Mean) [25]: 0.011 µg/mL | Emax, killing of HIV-infected cells (Mean) [25]: 66% | EC50 (Human FcRn [26]): 78 nM | PGT121.60 IC50 [27]: 0.0397 µg/mL | PGT121.60 IC50 [28]: 0.0826 µg/mL | PGT121.60 IC50 [29]: 0.203 µg/mL | PGT121.60 IC50 [30]: 0.0125 µg/mL | PGT121.60 IC50 [31]: 0.0255 µg/mL | PGT121.60 IC50 [32]: 2.55 µg/mL | PGT121.60 IC50 [33]: 0.0095 µg/mL | PGT121.60 IC50 [34]: 0.744 µg/mL | PGT121.60 IC50 [35]: 0.0056 µg/mL
